Results reported in patent publication US20170100454A1 (VANDERBILT UNIVERSITY, published 2017).
One block for each molecule: values may come before it. Positions of bridges follow the written chain, without caps; N, C: chain ends. No end group written: not given here. *: point of attachment. Biotin = O=C1N[C@H]2[C@H](CS[C@H]2CCCCC(=O)*)N1

Assays:
[1] = target: GST-tagged Imp α5 ΔIBB (human) (UniProt P52294); test: BLI, biotinylated N50 on SA biosensors; reference is GST-tagged Imp α1 ΔIBB
[2] = target: GST-tagged Imp α5 ΔIBB (human) (UniProt P52294); test: BLI (Octet RED96), biotinylated N50 on SA biosensors, GST-tagged Imp α5 ΔIBB at 50-200 nM, 2:1 model; column Imp α5 Minor
[3] = target: GST-tagged Imp α5 ΔIBB (human) (UniProt P52294); test: BLI (Octet RED96), biotinylated N50 on SA biosensors, GST-tagged Imp α5 ΔIBB at 50-200 nM, 2:1 model; column Imp α5 Major
[4] = target: T1, Endogenous human importin alpha 5 (human, UniProt P52294 1-529 at identity 1.00)); test: competition pull-down at 1.5 mg/mL Jurkat T lysate protein, biotinylated N50 on streptavidin beads as competitor, quantitative immunoblot
T1 construct: Endogenous protein in whole cell lysates, and in Hep-G2 cells for the functional rows; also called Imp α5; KPNA1
T1 sequence (P52294 1-529 S73N): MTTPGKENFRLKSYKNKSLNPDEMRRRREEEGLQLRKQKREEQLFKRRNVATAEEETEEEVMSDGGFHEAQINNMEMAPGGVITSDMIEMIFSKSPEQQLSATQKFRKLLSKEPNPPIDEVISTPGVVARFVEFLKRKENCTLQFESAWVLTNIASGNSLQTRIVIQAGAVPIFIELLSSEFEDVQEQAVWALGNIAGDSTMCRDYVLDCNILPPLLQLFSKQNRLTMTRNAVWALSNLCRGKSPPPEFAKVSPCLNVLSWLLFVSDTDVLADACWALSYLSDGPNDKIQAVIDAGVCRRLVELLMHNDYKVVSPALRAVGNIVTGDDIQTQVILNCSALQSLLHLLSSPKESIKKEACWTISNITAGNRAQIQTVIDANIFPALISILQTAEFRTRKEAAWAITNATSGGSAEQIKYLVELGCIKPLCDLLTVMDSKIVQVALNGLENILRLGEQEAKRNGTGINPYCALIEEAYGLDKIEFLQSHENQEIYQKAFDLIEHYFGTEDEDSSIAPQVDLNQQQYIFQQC

[5] = target: Endogenous human importin alpha 1 (human) (UniProt P52292); test: competition pull-down, 1.5 mg/mL Jurkat T cell lysate, 300 µM free N50 against biotinylated N50 on SA beads, quantitative immunoblot
[6] = target: T2, Endogenous human importin alpha 4 (human, UniProt O00505 2-521); test: as above
T2 construct: mature; also called Imp α4
T2 sequence (looked up): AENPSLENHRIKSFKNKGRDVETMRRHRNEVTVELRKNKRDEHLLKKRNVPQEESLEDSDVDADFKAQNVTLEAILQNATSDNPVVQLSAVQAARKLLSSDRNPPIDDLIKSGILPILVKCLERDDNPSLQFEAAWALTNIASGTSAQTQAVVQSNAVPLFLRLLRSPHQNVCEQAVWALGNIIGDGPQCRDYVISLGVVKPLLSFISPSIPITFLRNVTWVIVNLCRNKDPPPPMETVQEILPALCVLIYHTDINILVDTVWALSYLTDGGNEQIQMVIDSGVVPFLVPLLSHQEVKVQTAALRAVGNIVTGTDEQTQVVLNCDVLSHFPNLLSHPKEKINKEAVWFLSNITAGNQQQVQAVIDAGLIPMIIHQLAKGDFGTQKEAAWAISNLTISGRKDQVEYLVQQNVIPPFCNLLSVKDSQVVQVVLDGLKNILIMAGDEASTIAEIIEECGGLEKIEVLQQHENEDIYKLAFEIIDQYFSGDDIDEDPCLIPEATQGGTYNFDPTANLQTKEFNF

GAPDH [7] = target: T3, GAPDH (Homo sapiens, UniProt P04406); test: pull-down: biotinylated peptide in Jurkat T whole cell lysate, streptavidin-coated beads, immunoblot
T3 construct: endogenous, as present in the lysate; also called cellular protein GAPDH
T3 sequence (P04406 2-335 limits assumed): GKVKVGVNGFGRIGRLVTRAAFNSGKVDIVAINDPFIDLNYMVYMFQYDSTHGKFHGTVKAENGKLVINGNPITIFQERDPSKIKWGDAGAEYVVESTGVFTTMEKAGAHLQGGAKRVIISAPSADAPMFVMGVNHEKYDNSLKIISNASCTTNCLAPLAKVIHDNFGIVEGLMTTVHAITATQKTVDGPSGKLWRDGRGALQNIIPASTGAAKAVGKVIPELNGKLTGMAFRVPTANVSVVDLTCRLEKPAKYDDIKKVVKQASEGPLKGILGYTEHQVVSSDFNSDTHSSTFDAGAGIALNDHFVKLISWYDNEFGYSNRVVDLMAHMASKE

[8] = target: T4, Endogenous human importin beta 1 (human, UniProt Q14974 1-876); test: as above
T4 construct: mature; Endogenous protein in whole cell lysates, and in Hep-G2 cells for the functional rows; also called Imp β1; KPNB1
T4 sequence (Q14974 whole entry): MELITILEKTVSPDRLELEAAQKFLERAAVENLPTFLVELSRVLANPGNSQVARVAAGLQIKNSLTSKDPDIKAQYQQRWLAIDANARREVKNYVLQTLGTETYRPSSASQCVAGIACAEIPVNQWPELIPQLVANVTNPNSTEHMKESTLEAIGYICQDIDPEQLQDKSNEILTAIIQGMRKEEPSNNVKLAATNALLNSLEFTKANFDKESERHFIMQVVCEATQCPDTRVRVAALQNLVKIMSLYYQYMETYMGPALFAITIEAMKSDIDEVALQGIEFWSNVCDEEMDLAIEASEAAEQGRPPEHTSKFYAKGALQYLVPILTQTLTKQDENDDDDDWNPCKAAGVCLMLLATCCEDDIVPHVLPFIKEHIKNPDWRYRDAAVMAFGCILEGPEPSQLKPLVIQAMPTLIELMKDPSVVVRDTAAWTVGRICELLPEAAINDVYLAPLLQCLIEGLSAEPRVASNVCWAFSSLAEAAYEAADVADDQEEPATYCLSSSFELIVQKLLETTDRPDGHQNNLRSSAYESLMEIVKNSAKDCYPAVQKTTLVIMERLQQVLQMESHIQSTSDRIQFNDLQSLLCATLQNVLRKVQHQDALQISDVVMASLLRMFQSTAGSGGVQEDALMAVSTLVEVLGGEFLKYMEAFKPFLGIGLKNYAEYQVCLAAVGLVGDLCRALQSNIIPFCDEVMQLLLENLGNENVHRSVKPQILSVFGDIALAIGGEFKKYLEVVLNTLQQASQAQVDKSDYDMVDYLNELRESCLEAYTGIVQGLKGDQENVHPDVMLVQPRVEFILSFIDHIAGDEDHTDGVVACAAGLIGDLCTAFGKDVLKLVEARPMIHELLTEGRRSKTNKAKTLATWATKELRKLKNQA

[9] = target: T1, Endogenous human importin alpha 5; test: pull-down with biotinylated AR1 and SA beads from Jurkat T cell lysate, immunoblot
[10] = target: T5, Endogenous human importin alpha 7 (human, UniProt O60684 1-536); test: as above
T5 construct: mature; also called Imp α7

[11] = target: T6, Endogenous human importin alpha 3 (human, UniProt O00629 2-521); test: as above
T6 construct: mature; also called Imp α3
T6 sequence (looked up): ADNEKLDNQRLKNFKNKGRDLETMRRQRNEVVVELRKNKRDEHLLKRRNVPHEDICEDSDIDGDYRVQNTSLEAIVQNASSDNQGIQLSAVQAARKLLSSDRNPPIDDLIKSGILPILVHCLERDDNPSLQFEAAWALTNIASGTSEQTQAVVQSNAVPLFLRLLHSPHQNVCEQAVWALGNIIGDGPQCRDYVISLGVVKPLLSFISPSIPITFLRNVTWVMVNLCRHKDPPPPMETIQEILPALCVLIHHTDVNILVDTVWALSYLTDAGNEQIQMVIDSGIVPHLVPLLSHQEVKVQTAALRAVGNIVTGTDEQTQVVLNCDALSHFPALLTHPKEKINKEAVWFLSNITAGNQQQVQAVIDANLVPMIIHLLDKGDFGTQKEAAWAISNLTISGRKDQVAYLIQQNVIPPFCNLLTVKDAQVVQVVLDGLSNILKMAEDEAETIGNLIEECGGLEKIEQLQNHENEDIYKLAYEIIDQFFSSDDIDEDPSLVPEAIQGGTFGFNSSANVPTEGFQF

[12] = target: T2, Endogenous human importin alpha 4; test: as above
[13] = target: T5, Endogenous human importin alpha 7; test: pull-down with biotinylated peptide and SA beads from whole cell lysate, immunoblot
[14] = target: T4, Endogenous human importin beta 1; test: as above
GAPDH [15] = target: T3, GAPDH; test: pull-down: biotinylated peptide in Jurkat T whole cell lysate, streptavidin-coated beads, immunoblot [A]
[16] = target: T5, Endogenous human importin alpha 7; test: pull-down: biotinylated peptide in Jurkat T whole cell lysate, streptavidin-coated beads, immunoblot
[17] = target: T6, Endogenous human importin alpha 3; test: as above

Chain of GST-tagged Imp α5 ΔIBB (human) (P52294 101-529, stated change not applied): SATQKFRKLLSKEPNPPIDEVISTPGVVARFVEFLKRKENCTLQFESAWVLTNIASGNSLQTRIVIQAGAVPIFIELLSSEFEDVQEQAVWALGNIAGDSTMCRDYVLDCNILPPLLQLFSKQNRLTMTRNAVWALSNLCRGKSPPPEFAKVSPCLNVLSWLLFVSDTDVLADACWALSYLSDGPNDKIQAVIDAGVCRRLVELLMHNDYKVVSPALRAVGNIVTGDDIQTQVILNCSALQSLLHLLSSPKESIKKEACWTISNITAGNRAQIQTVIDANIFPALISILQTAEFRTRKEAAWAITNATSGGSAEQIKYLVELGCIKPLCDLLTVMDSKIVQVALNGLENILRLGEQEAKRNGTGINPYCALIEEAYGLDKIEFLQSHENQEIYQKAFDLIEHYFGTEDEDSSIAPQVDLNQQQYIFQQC

B1: Unlabeled N50 peptide (peptide)
peptide: VQRKRQKLMP
notes: also called free N50; non-biotinylated N50 peptide
IC50 (read off the curve) [4]: ~10000 nM
percent reduction of band intensity [5]: 20%
percent reduction of band intensity [6]: 20%

Molecule: VELRKAKKDDQMLKRRNVSSF (also: biotinylated (position and linker not given here)) [Biotinylated AR1 peptide (auto-inhibitory region of Imp α1)]
binding result (GAPDH [7]): no binding
binding result [8]: no binding
binding result [9]: no binding
binding result [10]: no binding
binding result [11]: no binding
binding result [12]: no binding

Molecule: Biotin-GGGGGCVQRKRQKLMPC (disulfide 6-17 (inferred), also called cyclized N50) [Biotinylated cN50.1 peptide]
binding result [13]: no binding
binding result [14]: no binding
binding result (GAPDH [15]): no binding

Molecule: VELRKNKRDEHLLKRRNVPHE (also: biotinylated (position and linker not given here)) [Biotinylated AR3 peptide (auto-inhibitory region of Imp α3)]
binding result (GAPDH [7]): no binding
binding result [16]: no binding
binding result [8]: no binding

Molecule: VELRKNKRDEHLLKKRNVPQE (also: biotinylated (position and linker not given here)) [Biotinylated AR4 peptide (auto-inhibitory region of Imp α4)]
binding result (GAPDH [7]): no binding
binding result [16]: no binding
binding result [8]: no binding

Molecule: LQLRKQKREEQLFKRRNVATA (also: biotinylated (position and linker not given here)) [Biotinylated AR5 peptide (auto-inhibitory region of Imp α5)]
binding result (GAPDH [7]): no binding
binding result [16]: no binding
binding result [17]: no binding
binding result [8]: no binding

Next, values leading:

fold maximum response against Imp α1 [1]: > 20 fold
Kd [2]: 140 nM
Kd [3]: 73 nM
Molecule: Biotinylated N50 peptide

binding result (GAPDH [7]): no binding
binding result [8]: no binding
Molecule: IQLRKQKREQQLFKRRNVELI (also: biotinylated (position and linker not given here)) [Biotinylated AR7 peptide (auto-inhibitory region of Imp α7)]
